Source: paper PMC10004559, “Identification of residues involved in allosteric signal transmission from amino acid binding site of pyruvate kinase muscle isoform 2” (PLOS ONE, 2023)

System: C=C(OP(=O)(O)O)C(=O)O
Assay: purified protein, by the assay type
Details: ADP 0.8 mM, pH 7.5

PKM2 N70D (Homo sapiens; N70D), sequence (chain, as listed by the source N70D N70D): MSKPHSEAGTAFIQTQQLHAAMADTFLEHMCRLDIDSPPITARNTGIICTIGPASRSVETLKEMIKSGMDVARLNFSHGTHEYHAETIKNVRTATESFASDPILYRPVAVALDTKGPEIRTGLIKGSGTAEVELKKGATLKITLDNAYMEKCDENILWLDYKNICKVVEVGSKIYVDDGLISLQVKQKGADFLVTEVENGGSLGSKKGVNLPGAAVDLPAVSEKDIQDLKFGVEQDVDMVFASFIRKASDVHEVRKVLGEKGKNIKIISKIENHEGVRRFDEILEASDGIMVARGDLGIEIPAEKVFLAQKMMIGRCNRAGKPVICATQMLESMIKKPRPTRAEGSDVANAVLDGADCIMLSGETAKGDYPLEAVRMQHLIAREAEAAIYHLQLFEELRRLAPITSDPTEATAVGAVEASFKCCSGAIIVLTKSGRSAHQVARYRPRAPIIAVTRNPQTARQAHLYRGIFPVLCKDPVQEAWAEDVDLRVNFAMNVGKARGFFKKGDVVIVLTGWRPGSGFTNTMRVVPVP
PKM2 R106A (Homo sapiens; R106A), sequence (chain, as listed by the source R106A R106A): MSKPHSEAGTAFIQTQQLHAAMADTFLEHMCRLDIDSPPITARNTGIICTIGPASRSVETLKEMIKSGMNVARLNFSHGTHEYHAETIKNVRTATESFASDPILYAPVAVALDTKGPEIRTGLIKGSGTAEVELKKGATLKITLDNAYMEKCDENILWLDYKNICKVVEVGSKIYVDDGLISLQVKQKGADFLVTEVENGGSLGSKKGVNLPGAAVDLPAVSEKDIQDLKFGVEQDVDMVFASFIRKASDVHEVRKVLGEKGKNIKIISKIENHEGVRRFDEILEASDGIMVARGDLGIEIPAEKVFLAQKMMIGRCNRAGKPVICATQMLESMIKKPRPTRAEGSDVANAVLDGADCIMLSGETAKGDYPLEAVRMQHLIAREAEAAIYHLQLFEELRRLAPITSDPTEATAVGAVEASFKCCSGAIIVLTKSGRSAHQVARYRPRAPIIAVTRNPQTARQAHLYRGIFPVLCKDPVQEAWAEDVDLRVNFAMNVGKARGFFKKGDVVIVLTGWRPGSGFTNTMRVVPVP
PKM2 N75L (Homo sapiens; N75L), sequence (chain, as listed by the source N75L N75L): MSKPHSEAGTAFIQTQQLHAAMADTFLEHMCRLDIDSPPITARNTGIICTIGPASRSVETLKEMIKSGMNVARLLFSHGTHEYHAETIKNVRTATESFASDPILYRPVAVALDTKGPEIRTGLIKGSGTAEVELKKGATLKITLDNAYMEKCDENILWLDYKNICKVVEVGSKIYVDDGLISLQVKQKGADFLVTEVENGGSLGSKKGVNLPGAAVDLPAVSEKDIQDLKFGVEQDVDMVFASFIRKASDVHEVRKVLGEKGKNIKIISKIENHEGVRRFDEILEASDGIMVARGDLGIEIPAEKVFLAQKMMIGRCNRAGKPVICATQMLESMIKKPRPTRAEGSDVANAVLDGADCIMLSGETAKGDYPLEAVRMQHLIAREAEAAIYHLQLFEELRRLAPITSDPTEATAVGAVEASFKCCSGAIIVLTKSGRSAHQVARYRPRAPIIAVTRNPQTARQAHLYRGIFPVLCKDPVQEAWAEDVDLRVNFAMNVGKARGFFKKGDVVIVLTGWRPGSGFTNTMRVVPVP

PKM2 N70D (Homo sapiens; N70D)
Km (other: 65 nM PKM2 N70D, no AA): 780 ± 160 µM | kcat/Km (other: 65 nM PKM2 N70D, no AA): 5.9±1.3 ×10^3 mM^-1 min^-1

PKM2 N75L (Homo sapiens; N75L)
Km (other: 4200 nM PKM2 N75L, no AA): 80 µM

PKM2 R106A (Homo sapiens; R106A)
Km (other: 50 nM PKM2 R106A, no AA): 510 ± 40 µM | kcat/Km (other: 50 nM PKM2 R106A, no AA): 9.6±0.8 ×10^3 mM^-1 min^-1

wtPKM2 (Homo sapiens)
Km (other: 10 nM wtPKM2, no AA): 700 µM
